In publication PMC3032713 one finds stoichiometry N data, which are given here for one substance.

The stoichiometry N is the number of molecules, sites or subunits per partner or assembly.

The target in this test is RBSDV P9-1 as used in vitro (data not shown) (Rice black-streaked dwarf virus). As to the kind of experiment: not stated; P9-1 dimers in vitro; data not shown.

For the substance “RBSDV P9-1 as used in vitro (data not shown) (natural protein)”, the stoichiometry N was 2.
